# IntAct's records for PubMed 21525010
# B1: Invasin IpaA (Shigella flexneri), P18010 (parent)
# chain: MHNVNNTQAPTFLYKATSPSSTEYSELKSKISDIHSSQTSLKTPASVSEKENFATSFNQKCLDFLFSSSGKEDVLRSIYSNSMNAYAKSEILEFSNVLYSLVHQNGLNFENEKGLQKIVAQYSELIIKDKLSQDSAFGPWSAKNKKLHQLRQNIEHRLALLAQQHTSGEALSLGQKLLNTEVSSFIKNNILAELKLSNETVSSLKLDDLVDAQAKLAFDSLRNQRKNTIDSKGFGIGKLSRDLNTVAVFPELLRKVLNDILEDIKDSHPIQDGLPTPPEDMPDGGPTPGANEKTSQPVIHYHINNDNRTYDNRVFDNRVYDNSYHENPENDAQSPTSQTNDLLSRNGNSLLNPQRALVQKVTSVLPHSISDTVQTFANNSALEKVFNHTPDNSDGIGSDLLTTSSQERSANNSLSRGHRPLNIQNSSTTPPLHPEGVTSSNDNSSDTTKSSASLSHRVASQINKFNSNTDSKVLQTDFLSRNGDTYLTRETIFEASKKVTNSLSNLISLIGTKSGTQERELQEKSKDITKSTTEHRINNKLKVTDANIRNYVTETNADTIDKNHAIYEKAKEVSSALSKVLSKIDDTSAELLTDDISDLKNNNDITAENNNIYKAAKDVTTSLSKVLKNINKD
# Variants of: B1
# Conditions: with vinc_human VCL
row,Variant,effect of a mutation on the interaction
1,V499E;L503Q,disrupting interaction

# Variants of: B1
# Conditions: with vinc_human VCL
# Remark: another data set of the same source
row,Variant,effect of a mutation on the interaction
1,A495K,decreasing interaction
